Test results from patent publication US20140072613A1, “Compositions and Methods for Treating Cutaneous Scarring” (priority 2012, published 2014).

How the values were obtained:
Test in all cases: biochemical
Assay type in all cases: biochemical
266 human kinases [1] = target: T1, 266 human kinases (Homo sapiens, UniProt O15111); settings: IKKα(h); 100 μM
T1 sequence (O15111 1-745): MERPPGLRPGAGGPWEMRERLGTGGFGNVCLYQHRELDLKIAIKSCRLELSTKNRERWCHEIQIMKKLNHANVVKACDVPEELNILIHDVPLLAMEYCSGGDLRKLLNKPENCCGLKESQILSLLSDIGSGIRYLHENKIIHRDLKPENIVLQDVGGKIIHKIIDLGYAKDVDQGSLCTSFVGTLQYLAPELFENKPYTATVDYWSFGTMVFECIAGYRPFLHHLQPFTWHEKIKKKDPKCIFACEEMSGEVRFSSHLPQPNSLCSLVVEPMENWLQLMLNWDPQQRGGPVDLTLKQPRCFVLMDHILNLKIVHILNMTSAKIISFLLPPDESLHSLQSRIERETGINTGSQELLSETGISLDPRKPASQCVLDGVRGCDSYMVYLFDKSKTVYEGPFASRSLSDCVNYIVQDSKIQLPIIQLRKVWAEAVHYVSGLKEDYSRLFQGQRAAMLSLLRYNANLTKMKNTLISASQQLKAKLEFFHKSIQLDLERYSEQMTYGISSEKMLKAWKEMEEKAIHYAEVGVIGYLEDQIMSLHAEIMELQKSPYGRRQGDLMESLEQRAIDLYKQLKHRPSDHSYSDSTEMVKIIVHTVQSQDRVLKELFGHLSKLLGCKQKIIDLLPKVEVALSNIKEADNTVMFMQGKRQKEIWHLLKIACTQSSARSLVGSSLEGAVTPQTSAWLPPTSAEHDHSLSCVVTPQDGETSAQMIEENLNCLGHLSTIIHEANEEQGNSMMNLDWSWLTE
Outline: (§1)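 Inhibition was judged from reduced transfer of labelled phosphate from ATP to a positively charged substrate, which was captured on a negatively charged membrane and quantified by scintillation counting against a 100% activity control.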

266 human kinases [2] = target: 266 human kinases (Homo sapiens, UniProt P00519, Q252H); settings: Abl(Q252H)(h); 100 μM
Outline: as §1

266 human kinases [3] = target: 266 human kinases (Homo sapiens, UniProt P10721, D816H); settings: cKit(D816H)(h); 100 μM
Outline: as §1

266 human kinases [4] = target: 266 human kinases (Homo sapiens, UniProt P36888, D835Y); settings: Flt3(D835Y)(h); 100 μM
Outline: as §1

266 human kinases [5] = target: 266 human kinases (Homo sapiens, UniProt P53355); settings: DAPK1(h); 100 μM
266 human kinases (Homo sapiens, UniProt P53355), sequence (P53355 whole entry): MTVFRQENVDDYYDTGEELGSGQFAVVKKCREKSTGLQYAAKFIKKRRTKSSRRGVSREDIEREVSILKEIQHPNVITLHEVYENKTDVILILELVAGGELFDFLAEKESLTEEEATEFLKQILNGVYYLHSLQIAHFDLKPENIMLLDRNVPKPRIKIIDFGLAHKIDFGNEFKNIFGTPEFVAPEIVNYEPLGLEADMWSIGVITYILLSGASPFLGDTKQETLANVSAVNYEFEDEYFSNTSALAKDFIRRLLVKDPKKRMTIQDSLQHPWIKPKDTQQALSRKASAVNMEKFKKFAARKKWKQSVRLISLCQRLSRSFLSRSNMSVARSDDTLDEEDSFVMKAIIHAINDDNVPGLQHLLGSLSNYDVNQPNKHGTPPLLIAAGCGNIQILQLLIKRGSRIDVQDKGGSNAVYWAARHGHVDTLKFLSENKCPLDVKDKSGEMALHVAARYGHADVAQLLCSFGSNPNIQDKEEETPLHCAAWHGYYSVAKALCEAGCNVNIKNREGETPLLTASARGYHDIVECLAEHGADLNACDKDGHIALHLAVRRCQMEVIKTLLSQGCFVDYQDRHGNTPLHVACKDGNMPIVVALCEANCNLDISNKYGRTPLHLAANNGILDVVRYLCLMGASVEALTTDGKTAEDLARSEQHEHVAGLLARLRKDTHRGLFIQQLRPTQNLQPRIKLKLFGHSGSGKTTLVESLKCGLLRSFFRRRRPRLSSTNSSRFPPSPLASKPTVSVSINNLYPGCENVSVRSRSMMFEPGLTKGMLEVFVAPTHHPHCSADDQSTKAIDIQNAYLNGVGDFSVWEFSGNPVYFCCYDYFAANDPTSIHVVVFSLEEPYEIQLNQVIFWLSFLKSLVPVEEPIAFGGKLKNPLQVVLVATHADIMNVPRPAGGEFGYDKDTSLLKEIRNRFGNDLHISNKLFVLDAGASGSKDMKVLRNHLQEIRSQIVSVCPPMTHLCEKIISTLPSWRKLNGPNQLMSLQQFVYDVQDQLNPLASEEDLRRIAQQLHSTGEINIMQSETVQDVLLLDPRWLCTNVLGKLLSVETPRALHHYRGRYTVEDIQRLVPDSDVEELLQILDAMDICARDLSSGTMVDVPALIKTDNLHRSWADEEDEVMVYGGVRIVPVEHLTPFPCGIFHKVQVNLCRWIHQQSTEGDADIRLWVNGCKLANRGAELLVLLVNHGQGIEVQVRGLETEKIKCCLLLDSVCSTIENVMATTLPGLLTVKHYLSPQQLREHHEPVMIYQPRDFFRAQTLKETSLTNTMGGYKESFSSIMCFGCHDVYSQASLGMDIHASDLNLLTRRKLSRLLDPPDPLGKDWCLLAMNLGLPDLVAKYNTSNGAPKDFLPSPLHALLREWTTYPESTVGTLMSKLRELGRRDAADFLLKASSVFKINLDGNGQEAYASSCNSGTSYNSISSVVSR
Outline: as §1

266 human kinases [6] = target: 266 human kinases (Homo sapiens, UniProt Q5VT25); settings: MRCKα(h); 100 μM
266 human kinases (Homo sapiens, UniProt Q5VT25), sequence (Q5VT25 whole entry): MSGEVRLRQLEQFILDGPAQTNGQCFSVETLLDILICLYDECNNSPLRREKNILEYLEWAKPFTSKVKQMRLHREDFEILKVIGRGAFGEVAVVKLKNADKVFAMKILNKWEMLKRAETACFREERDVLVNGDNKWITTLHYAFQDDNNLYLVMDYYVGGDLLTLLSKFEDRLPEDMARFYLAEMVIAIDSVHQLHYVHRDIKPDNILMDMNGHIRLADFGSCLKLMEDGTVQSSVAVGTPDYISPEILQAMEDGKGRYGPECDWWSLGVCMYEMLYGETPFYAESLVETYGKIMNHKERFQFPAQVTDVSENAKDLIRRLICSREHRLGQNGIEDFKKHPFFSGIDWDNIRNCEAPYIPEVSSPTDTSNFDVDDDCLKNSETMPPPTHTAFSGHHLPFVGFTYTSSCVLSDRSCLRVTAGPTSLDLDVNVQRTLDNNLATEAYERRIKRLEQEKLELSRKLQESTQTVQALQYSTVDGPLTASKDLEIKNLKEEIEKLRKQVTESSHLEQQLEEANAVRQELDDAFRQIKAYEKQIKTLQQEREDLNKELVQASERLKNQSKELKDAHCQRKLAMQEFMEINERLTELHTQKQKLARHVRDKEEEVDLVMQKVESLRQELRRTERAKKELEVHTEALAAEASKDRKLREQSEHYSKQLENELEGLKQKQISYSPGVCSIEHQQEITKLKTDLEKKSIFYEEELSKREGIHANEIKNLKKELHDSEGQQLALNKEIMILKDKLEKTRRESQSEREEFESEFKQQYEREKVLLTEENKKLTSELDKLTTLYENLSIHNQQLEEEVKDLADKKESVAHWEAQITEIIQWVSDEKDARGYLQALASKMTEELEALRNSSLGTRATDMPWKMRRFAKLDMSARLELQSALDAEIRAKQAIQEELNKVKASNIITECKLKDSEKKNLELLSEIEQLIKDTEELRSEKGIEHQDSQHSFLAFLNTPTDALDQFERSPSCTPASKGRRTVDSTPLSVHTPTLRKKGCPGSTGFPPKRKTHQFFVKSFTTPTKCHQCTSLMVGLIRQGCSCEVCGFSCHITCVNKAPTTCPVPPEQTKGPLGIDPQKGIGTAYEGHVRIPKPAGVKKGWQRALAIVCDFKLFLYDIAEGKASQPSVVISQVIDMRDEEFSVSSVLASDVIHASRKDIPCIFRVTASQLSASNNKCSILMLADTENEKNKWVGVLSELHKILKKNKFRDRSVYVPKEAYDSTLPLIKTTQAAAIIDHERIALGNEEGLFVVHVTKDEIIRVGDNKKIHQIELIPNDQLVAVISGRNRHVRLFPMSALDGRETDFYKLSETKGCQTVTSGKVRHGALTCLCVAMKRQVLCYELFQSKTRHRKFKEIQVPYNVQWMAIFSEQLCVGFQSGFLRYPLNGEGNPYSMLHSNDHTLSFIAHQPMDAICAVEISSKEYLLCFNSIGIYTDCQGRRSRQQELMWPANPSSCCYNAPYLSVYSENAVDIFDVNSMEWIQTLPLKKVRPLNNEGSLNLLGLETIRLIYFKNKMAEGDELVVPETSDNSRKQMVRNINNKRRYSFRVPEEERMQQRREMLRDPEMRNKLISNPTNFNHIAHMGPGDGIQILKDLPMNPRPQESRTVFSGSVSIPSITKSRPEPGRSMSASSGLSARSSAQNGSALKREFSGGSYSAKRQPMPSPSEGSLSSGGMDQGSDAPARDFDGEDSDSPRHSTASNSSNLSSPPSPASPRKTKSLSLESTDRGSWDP
Outline: as §1

266 human kinases [7] = target: T2, 266 human kinases (Homo sapiens, UniProt Q8IWQ3); settings: BrSK2(h); 100 μM
T2 sequence (Q8IWQ3 1-736): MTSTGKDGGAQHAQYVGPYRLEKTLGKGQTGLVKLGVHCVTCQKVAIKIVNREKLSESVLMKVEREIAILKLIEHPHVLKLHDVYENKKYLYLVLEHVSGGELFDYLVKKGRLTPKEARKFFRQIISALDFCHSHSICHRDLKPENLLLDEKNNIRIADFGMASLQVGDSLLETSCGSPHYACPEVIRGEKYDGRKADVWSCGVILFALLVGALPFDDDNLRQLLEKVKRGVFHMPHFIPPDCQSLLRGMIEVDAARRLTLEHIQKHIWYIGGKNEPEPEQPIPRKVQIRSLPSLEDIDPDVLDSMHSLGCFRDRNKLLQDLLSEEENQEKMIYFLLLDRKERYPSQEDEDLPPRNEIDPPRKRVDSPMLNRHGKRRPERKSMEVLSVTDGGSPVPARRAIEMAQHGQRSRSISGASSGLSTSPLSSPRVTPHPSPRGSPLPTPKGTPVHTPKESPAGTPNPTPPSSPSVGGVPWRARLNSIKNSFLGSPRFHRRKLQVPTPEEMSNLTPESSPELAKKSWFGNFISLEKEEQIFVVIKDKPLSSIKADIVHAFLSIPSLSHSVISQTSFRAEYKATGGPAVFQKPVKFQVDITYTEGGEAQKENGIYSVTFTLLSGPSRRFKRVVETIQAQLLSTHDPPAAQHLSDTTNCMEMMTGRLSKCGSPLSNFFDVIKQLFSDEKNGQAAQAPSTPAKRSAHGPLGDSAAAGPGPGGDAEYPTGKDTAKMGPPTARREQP
Outline: as §1

266 human kinases [8] = target: 266 human kinases (Homo sapiens, UniProt Q8N4C8); settings: MINK(h); 100 μM
Outline: as §1

266 human kinases [9] = target: 266 human kinases (Homo sapiens, UniProt P11362, V561M); settings: FGFR1(V561M)(h); 100 μM
266 human kinases (Homo sapiens, UniProt P11362, V561M), sequence (P11362 22-822 V561M): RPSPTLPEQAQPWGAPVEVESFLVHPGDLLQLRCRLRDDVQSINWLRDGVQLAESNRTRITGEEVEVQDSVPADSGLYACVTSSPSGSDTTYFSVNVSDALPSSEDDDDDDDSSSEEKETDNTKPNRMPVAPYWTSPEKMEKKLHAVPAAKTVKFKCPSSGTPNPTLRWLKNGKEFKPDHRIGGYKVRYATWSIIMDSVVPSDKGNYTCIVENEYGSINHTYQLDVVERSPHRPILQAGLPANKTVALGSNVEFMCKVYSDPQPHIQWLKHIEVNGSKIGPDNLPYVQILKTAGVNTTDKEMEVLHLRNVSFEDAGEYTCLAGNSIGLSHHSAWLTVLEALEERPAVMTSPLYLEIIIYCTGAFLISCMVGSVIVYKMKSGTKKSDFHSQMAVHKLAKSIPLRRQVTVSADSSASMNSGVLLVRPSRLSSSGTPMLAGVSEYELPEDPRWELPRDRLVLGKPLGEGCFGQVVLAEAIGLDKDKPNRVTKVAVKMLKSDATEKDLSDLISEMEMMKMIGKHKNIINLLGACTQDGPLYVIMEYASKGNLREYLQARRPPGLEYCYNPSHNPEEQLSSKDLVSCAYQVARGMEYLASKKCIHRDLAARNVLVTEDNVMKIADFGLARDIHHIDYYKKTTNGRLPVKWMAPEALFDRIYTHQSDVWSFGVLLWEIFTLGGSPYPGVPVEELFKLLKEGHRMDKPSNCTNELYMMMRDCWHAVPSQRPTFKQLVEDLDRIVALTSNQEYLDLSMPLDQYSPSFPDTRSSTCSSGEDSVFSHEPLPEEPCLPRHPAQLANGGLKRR
Outline: as §1

Sequence | % activity (266 human kinases [1]) [%] | % activity (266 human kinases [2]) [%] | % activity (266 human kinases [3]) [%] | % activity (266 human kinases [4]) [%] | % activity (266 human kinases [5]) [%] | % activity (266 human kinases [6]) [%] | % activity (266 human kinases [7]) [%] | % activity (266 human kinases [8]) [%] | % activity (266 human kinases [9]) [%]
HRRIKAWLKKIKALARQLGVAA (mammal) [MMI-0500] | 50 | 40 | 194 | 65 | 0 | 5 | 84 | 5 | 
YARAAARQARAKALNRQLGVA (mammal) [MMI-0200] |  |  |  |  |  |  |  |  | 72
